Entries after “also recorded” stand apart in the source; their conditions may differ. Where two headings read alike, the source gives them in different places.
How the values were obtained:
gp120Bal-CD4 [1] = test: Binding ELISA to gp120Bal-CD4 (Example 3); set-up: species or system HIV-1
[2] = tested on: Viruses pseudotyped with HIV-1 Envs; test: Pseudovirus neutralization assay; type: cell-based; details: for neutralizing activity compared to m36: side by side in the same experiment
gp140GXC-44 = test: Competition ELISA on gp140GXC-44; type: binding, HIV-1; details: in the absence of CD4
Experimental: (§1) Antigens were coated and blocked as described above. […] Mixtures were subsequently added to each well and incubated. Bound m36 was detected and the assay was developed as described above.

BSA = BSA (Bos taurus, UniProt P02769); test: Binding ELISA to BSA (unrelated antigen)
[3] = Size exclusion chromatography, oligomerization; details: Superdex75, PBS
soluble CD4 (sCD4) = soluble CD4 (sCD4) (Homo sapiens, UniProt P01730); test: ELISA binding to CD4 alone
gp120Bal = test: ELISA binding to gp120 alone; set-up: species or system HIV-1; details: without CD4
gp120Bal-CD4 [4] = test: Competition ELISA on gp120Bal-CD4; type: binding, HIV-1
Experimental: as §1

[5] = tested on: gp140 from a clade C isolate GXC-44 (gp140GXC-44); test: Binding ELISA to gp140GXC-44; set-up: species or system HIV-1
[6] = Storage of VH protein solutions at 4° C., precipitation; type: physicochemical; details: stored at 4° C. for 4 weeks
[7] = target: serum albumin from human (HSA) (Homo sapiens, UniProt P02768); test: Binding of m36SAbp to human serum albumin; details: data not shown
[8] = target: serum albumin from bovine (BSA) (Bos taurus, UniProt P02769); test: Binding of m36SAbp to bovine serum albumin; details: data not shown
[9] = target: serum albumin from mouse (MSA) (Mus musculus, UniProt P07724); test: Binding of m36SAbp to mouse serum albumin; details: data not shown
Sequence of serum albumin from mouse (MSA) (P07724 25-608): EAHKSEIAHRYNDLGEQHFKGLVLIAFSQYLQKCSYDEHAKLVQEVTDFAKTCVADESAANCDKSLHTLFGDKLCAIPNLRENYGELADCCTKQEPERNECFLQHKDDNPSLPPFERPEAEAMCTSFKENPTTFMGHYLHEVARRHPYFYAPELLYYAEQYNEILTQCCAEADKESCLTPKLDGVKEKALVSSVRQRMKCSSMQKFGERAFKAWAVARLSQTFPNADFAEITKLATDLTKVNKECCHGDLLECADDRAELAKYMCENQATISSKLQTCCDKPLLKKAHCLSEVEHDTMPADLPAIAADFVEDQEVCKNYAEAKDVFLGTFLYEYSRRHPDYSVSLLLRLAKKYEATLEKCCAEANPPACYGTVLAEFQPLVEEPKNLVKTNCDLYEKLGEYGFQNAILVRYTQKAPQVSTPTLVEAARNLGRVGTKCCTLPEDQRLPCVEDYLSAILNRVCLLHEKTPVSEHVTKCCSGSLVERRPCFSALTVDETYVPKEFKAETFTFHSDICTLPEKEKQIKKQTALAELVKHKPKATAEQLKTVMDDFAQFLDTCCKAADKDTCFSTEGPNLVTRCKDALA

Sequence of tethered gp140 from 89.6 (Q73372 32-496 limits assumed): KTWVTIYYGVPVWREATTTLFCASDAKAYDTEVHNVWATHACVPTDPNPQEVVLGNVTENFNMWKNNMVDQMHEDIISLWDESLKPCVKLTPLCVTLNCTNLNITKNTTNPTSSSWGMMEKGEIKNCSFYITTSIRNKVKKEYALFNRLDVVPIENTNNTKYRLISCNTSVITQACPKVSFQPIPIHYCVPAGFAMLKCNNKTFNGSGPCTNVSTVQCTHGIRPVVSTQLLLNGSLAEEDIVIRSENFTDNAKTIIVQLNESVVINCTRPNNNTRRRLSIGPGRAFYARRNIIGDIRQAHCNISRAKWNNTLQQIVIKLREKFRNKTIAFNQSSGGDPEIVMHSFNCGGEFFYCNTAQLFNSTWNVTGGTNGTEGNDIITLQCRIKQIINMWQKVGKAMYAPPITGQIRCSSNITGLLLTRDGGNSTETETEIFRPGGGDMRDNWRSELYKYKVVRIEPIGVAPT
Sequence of BSA (P02769 25-607): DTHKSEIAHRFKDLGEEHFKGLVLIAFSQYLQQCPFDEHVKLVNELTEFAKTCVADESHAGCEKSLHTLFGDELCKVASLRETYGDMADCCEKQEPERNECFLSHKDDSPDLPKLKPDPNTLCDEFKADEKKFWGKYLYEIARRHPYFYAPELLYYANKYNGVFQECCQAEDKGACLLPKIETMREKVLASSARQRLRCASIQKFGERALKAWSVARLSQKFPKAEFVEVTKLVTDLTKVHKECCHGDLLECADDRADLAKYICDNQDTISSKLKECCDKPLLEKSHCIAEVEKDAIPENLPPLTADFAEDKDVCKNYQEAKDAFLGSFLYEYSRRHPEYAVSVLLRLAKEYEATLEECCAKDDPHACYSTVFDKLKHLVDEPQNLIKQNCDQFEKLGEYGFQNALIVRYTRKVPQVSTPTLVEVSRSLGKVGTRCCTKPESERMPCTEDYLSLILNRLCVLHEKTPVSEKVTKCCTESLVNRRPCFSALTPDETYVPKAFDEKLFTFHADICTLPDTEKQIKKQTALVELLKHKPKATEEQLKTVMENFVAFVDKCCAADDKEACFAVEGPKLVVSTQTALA
Sequence of serum albumin from bovine (BSA) (P02769 25-607): as above

B1: m36c2Fc: m36 joined with human IgG1 Fc by a camel IgG2 hinge (protein)
chain: QVQLVQSGGGLVQPGGSLRLSCAASAFDFSDYEMSWVRQAPGKGLEWIGEINDSGNTIYNPSLKSRVTISRDNSKNTLYLQMNTLRAEDTAIYYCAIYGGNSGGEYWGQGTLVTVSSEPKIPQPQPKPQPQPQPQPKPQPKPEPECTCPKCP
modifications: left off: a dimerising Fc or GST
notes: m36 joined with human IgG1 Fc by a camel IgG2 hinge
gp120Bal-CD4 [1]
  EC50: ~0.5 nM
[2]
  number of isolates neutralized: five isolates
  potency against 89.6 compared to m36: higher than that of m36
  potency compared to m36h1Fc: did not exhibit higher potency

B2: m36h3Fc: m36 joined with human IgG1 Fc by a human IgG3 hinge (protein)
chain: QVQLVQSGGGLVQPGGSLRLSCAASAFDFSDYEMSWVRQAPGKGLEWIGEINDSGNTIYNPSLKSRVTISRDNSKNTLYLQMNTLRAEDTAIYYCAIYGGNSGGEYWGQGTLVTVSSELKTPLGDTTHTCPRCPEPKSCDTPPPCPRCP
modifications: left off: a dimerising Fc or GST
notes: m36 joined with human IgG1 Fc by a human IgG3 hinge
gp120Bal-CD4 [1]
  EC50: ~0.5 nM
[2]
  number of isolates neutralized: five isolates
  potency against 89.6 compared to m36: higher than that of m36
  potency compared to m36h1Fc: did not exhibit higher potency

B3: m36: human VH domain antibody (dAb) on m0 scaffold targeting CD4i epitope of HIV-1 gp120; CDR3 AIYGGNSGGEY (protein)
VHH: QVQLVQSGGGLVQPGGSLRLSCAASAFDFSDYEMSWVRQAPGKGLEWIGEINDSGNTIYNPSLKSRVTISRDNSKNTLYLQMNTLRAEDTAIYYCAIYGGNSGGEYWGQGTLVTVSS
gp140GXC-44
  competition with m14 for binding to gp140GXC-44: competed
BSA
  binding to BSA: not to gp120Bal or to soluble CD4 (sCD4) and BSA
Tethered gp140 from 89.6; after gp140 bound to CD4
  binding to tethered gp140 from 89.6: enhanced
Tethered gp140 from 89.6; without complexation with CD4
  binding to tethered gp140 from 89.6: bound
[3]
  oligomeric state: monomeric
Soluble CD4 (sCD4)
  binding to CD4 alone: not to gp120Bal or to soluble CD4 (sCD4) and BSA
Soluble CD4 (sCD4); listed as b5
  binding to CD4 alone: neither gp120 nor CD4 alone
gp120Bal
  binding to gp120 alone: not to gp120Bal or to soluble CD4 (sCD4) and BSA
[2]; at 667 nM
  inhibition of the isolate from clade C: 100%
[2]; at 667 nM, 7 clade B isolates in panel
  isolates completely (100%) inhibited: 4 out of 7
[2]; at concentrations up to 667 nM
  neutralization of the clade E isolate GXE: did not neutralize
[2]; average over panel
  potency compared to peptide C34: on average more potent
[2]; average, six clade B, one clade C, one clade A isolate, IC50s on molar basis
  neutralization potency compared to scFv m9: two-fold higher
[2]; clade A, B, C, and D
  cross-reactivity against HIV-1 isolates: cross-reactive
[2]; clade B isolate 89.6 and clade-D isolate Z2Z6
  neutralization activity compared to scFv m9: lower neutralization activity
[2]; clade C isolate GXC-44 and clade B isolate NL4-3
  IC90: very low IC90s
gp120Bal-CD4 [4]
  competition with CD4bs antibody m14 for binding to gp120Bal-CD4: not with the CD4 binding site (CD4bs) antibody m14
  competition with CD4i antibody m16 for binding to gp120Bal-CD4: competed
[5]; gp140GXC-44 alone
  binding to gp140GXC-44: did bind although weaker
[5]; in the presence of sCD4
  binding to gp140GXC-44: bound
[6]
  precipitation on storage: no precipitation

B4: m36CH3: m36 fused to human IgG1 CH3 domain without linker, MW~60 kDa (protein)
VHH: B3 VHH
modifications: left off: a dimerising Fc or GST; small tags and cut ends
notes: m36 fused to human IgG1 CH3 domain without linker, MW~60 kDa
gp120Bal-CD4 [1]
  binding to gp120Bal-CD4 compared to m36: comparable to that of m36
[2]; 10 isolates
  isolates with loss of neutralization compared to m36: 7 of 10
[2]; IIIB, 89.6 and NL4-3
  IC50s compared to the corresponding ones for m36: significantly higher
[2]
  neutralizing activity compared to m36: significantly weaker

B5: m36b0Fc: m36 fused to human IgG1 Fc without peptide linker, MW~80 kDa (protein)
VHH: B3 VHH
modifications: left off: a dimerising Fc or GST
notes: m36 fused to human IgG1 Fc without peptide linker, MW~80 kDa
gp120Bal-CD4 [1]
  binding to gp120Bal-CD4 compared to m36: bound slightly better
[2]
  inhibitory activity against 89.6 and NL4-3: decreased inhibitory activity
  neutralization of TCLA isolate IIIB: lost neutralization

B6: m36SAbp: m36 fused to a serum albumin binding peptide (SAbp), MW~18 kDa (protein)
chain: QVQLVQSGGGLVQPGGSLRLSCAASAFDFSDYEMSWVRQAPGKGLEWIGEINDSGNTIYNPSLKSRVTISRDNSKNTLYLQMNTLRAEDTAIYYCAIYGGNSGGEYWGQGTLVTVSSQRHPEDICLPRWGCLWGDDD
modifications: left off: small tags and cut ends
[7]
  binding to serum albumin: binds
gp120Bal-CD4 [1]
  binding to gp120Bal-CD4 compared to m36: comparable to that of m36
[8]
  binding to serum albumin: binds
[2]
  neutralizing activity compared to m36: slight but not significant decrease; also recorded: about the same neutralizing activity
[9]
  binding to serum albumin: binds

From patent publication US10287340B2, “Anti-HIV domain antibodies and method of making and using same” (priority 2008, dated 2019)
